Test results taken from the Immune Epitope Database (IEDB).
pKd: −log10 of the molar value.

Key:
HLA-A*02:01 = test: IEDB peptide-MHC binding, purified MHC/direct/fluorescence; filed as Kd, often an IC50 or EC50 that approximates it; ≥ and ≤ were set here for values at or beyond the usual limits of such assays; settings: source organism: Vibrio cholerae V52
HLA-A*02:03 = test: as above; settings: source organism: Vibrio cholerae V52
HLA-A*02:11 = test: as above; settings: source organism: Vibrio cholerae V52
HLA-A*02:12 = test: as above; settings: source organism: Vibrio cholerae V52
HLA-A*02:16 = test: as above; settings: source organism: Vibrio cholerae V52
HLA-A*02:19 = test: as above; settings: source organism: Vibrio cholerae V52
HLA-A*03:01 = test: as above; settings: source organism: Vibrio cholerae V52
HLA-A*23:01 = test: as above; settings: source organism: Vibrio cholerae V52
HLA-A*24:03 = test: as above; settings: source organism: Vibrio cholerae V52
HLA-A*26:01 = test: as above; settings: source organism: Vibrio cholerae V52
HLA-A*29:02 = test: as above; settings: source organism: Vibrio cholerae V52
HLA-A*68:02 = test: as above; settings: source organism: Vibrio cholerae V52
HLA-B*15:01 = test: as above; settings: source organism: Vibrio cholerae V52
HLA-B*15:17 = test: as above; settings: source organism: Vibrio cholerae V52
HLA-B*18:01 = test: as above; settings: source organism: Vibrio cholerae V52
HLA-B*27:03 = test: as above; settings: source organism: Vibrio cholerae V52
HLA-B*39:01 = test: as above; settings: source organism: Vibrio cholerae V52
HLA-B*57:01 = test: as above; settings: source organism: Vibrio cholerae V52
HLA-A*11:01 = test: IEDB peptide-MHC binding, purified MHC/competitive/fluorescence; filed as Kd, often an IC50 or EC50 that approximates it; ≥ and ≤ were set here for values at or beyond the usual limits of such assays; settings: source organism: Vibrio cholerae 2740-80
HLA-A*30:01 = test: as above; settings: source organism: Vibrio cholerae 2740-80
HLA-A*30:02 = test: as above; settings: source organism: Vibrio cholerae 2740-80
HLA-B*07:02 = test: as above; settings: source organism: Vibrio cholerae 2740-80
HLA-B*27:05 = test: as above; settings: source organism: Vibrio cholerae 2740-80
HLA-B*40:01 = test: as above; settings: source organism: Vibrio cholerae 2740-80
HLA-B*58:01 = test: as above; settings: source organism: Vibrio cholerae 2740-80

MGMEQTMSV
pKd (HLA-A*02:01): ≤ 4.70
pKd (HLA-A*02:03): ≤ 4.70
pKd (HLA-A*02:11): ≤ 4.70
pKd (HLA-A*02:12): ≤ 4.70
pKd (HLA-A*02:16): ≤ 4.70
pKd (HLA-A*02:19): ≤ 4.70
pKd (HLA-A*03:01): ≤ 4.70
pKd (HLA-A*23:01): ≤ 4.70
pKd (HLA-A*24:03): ≤ 4.70
pKd (HLA-A*26:01): ≤ 4.70
pKd (HLA-A*29:02): ≤ 4.70
pKd (HLA-A*68:02): ≥ 9.00
pKd (HLA-B*15:01): ≤ 4.70
pKd (HLA-B*15:17): ≤ 4.70
pKd (HLA-B*18:01): ≤ 4.70
pKd (HLA-B*27:03): ≤ 4.70
pKd (HLA-B*39:01): ≤ 4.70
pKd (HLA-B*57:01): ≤ 4.70
pKd (HLA-A*11:01): ≤ 5.30
pKd (HLA-A*30:01): ≤ 5.30
pKd (HLA-A*30:02): ≤ 5.30
pKd (HLA-B*07:02): ≤ 5.30
pKd (HLA-B*27:05): ≤ 5.30
pKd (HLA-B*40:01): ≤ 5.30
pKd (HLA-B*58:01): ≤ 5.30
